The text below walks through data of patent US11491212.

Broadly, the kcat/KM is the second-order rate constant that governs catalysis at low substrate concentration. A word on the KM: it is the concentration of substrate that gives half-maximal velocity. In general, kcat refers to the maximal rate divided by the concentration of active sites.

Data set [1] addresses Factor X (FX), active site titrated and DFP/EGR-cmk treated zymogen, P00742.
Data set [2] has as its target Factor X, P00742.
For data set [3], the target named is Factor X (FX), P00742.
Chain of Factor X (FX), P00742 (P00742 whole entry, looked up): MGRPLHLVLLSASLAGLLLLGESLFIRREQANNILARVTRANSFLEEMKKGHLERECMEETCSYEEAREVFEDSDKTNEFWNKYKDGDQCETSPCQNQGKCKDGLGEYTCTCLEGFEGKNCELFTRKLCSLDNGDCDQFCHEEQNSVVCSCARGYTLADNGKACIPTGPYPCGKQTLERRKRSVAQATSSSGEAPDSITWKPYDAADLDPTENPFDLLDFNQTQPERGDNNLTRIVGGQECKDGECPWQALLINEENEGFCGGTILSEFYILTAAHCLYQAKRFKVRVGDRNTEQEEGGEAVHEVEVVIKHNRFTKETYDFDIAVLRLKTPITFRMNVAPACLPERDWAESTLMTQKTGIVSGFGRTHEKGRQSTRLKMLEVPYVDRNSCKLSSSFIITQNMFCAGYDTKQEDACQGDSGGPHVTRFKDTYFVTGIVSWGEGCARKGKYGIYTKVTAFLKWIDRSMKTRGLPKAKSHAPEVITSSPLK
Data set [4] has as its target Antithrombin III (plasma purified human AT-III) in complex with unfractionated heparin. Briefly: ratio of K0.5 of variant to K0.5 of Catalyst Biosciences WT FIXa, AT-III/UFH inhibition assay.
Data set [5] has as its target plasma purified human AT-III (antithrombin III), in complex with low molecular weight heparin.

Chain of Factor X, P00742 (P00742 whole entry, looked up): as above
Chain of Factor X (FX), active site titrated and DFP/EGR-cmk treated zymogen, P00742 (P00742 whole entry, looked up): as above

B1: FIXa-R318Y/R338E/T343R/E410N (protein)
chain 1: not shown
chain 2: not shown
On to B1, for which the “catalytic activity (kcat/KM for activation of FX)” value (“catalytic activity” below) in data set [1] is on record as “displayed some of the greatest increases in catalytic activity”. Moreover, the kcat/KM in data set [2] came out at 3.4e+08 M⁻¹ s⁻¹. Also, the KM in data set [3] was found to be 0.0164 µM.

B2: FIXa-K228N/K247N/N249S (protein)
chain 1: not shown
chain 2: not shown
Regarding B2, the “catalytic activity” value in data set [1] is given as “demonstrated close to wild-type activity”. In data set [3], the “% of WT kcat/KM (against Catalyst Biosciences WT FIXa)” value came to 83% and the kcat/KM for activation of FX by FIXa in the Xase complex (FVIIIa, PC/PS vesicles, Ca2+), fluorogenic Spectrafluor FXa read-out stood at 3.8e+07 M⁻¹ s⁻¹.

B3: FIXa variant R318Y/R338E/E410N/T412V (protein)
chain 1: not shown
chain 2: not shown
For B3, the K0.5-mut/K0.5-wt in data set [4] was greater than 517.

B4: FIXa-K247N/N249S/R338E/T343R/R403E (protein)
chain 1: not shown
chain 2: not shown
With B4, the “catalytic activity” value in data set [1] is reported as “improved activity when combined with other mutations”. The KM in data set [2] is 0.0263 µM. Besides, in data set [3], the kcat was 14.6 s⁻¹.

B5: FIXa-K293E/R338E/R403E (protein)
chain 1: not shown
chain 2: not shown
Regarding B5, the KM of FX activation by FIXa in the Xase complex (FVIIIa, PC/PS vesicles, Ca2+); fluorogenic Spectrafluor FXa assay in data set [2] was found to be 0.05 µM. Moreover, in data set [3], the KM was 0.05 µM. For the same protein, in data set [5], the K0.5-mut/K0.5-wt (against Catalyst Biosciences WT FIXa), AT-III/LMWH worked out at 14.2 fold.

B6: FIXa-K293A/R338A/R403A (protein)
chain 1: not shown
chain 2: not shown
As for B6, the KM of FX activation by FIXa in the Xase complex (FVIIIa, PC/PS vesicles, Ca2+); fluorogenic Spectrafluor FXa assay in data set [2] is 0.0654 µM. Moreover, in data set [3], the KM was found to be 0.0654 µM. Besides, in data set [5], the K0.5-mut/K0.5-wt (against Catalyst Biosciences WT FIXa), AT-III/LMWH is 16.9 fold.

B7: FIXa-K247N/N249S/R318Y/R338E/T343R/R403E/E410N (protein)
chain 1: not shown
chain 2: not shown
On to B7, for which the “catalytic activity” value in data set [1] is given as “improved activity when combined with other mutations”. For the same protein, the kcat/KM in data set [2] stood at 3.8e+08 M⁻¹ s⁻¹.
